The target of assay [1] is keyhole limpet hemocyanin. In words: polyreactivity ELISA. (In an ELISA, binding on a coated surface is turned into a signal by an enzyme label.)
For assay [2], the target named is keyhole limpet hemocyanin. Description: polyreactivity ELISA. The source holds these as a separate data set.

Like-named read-outs stand apart in the source and are kept apart here.

As to Bococizumab (antibody), the Binding to KLH (normalised A450) in assay [1] came to 47.1; in assay [2] it was 24.4.
